The target in data set [1] is WT BetP reconstituted in amphipol A8-35 (AMP-BetP) (Corynebacterium glutamicum) (UniProt P54582). In words: cryo-EM structure.
Data set [2] has the same target. In words: cryo-EM structure. The source holds these as a separate data set.
Data set [3] deals with the molecule itself. In words: crystal structure.

Read-outs that look alike come from different tables or passages of the source.

Turning to “WT BetP reconstituted in amphipol A8-35 (AMP-BetP) (from UniProt P54582 1-595) (natural protein)”, the stoichiometry N in data set [1] and in data set [2] was 3 in each case.

B1: BetP-ΔN29/E44E45E46/AAA (crystallization mutant BetP^cryst) (natural protein, Corynebacterium glutamicum, UniProt P54582 30-595, looked up)
chain: LENPTNLEGKLADAAAAIILEGEDTQASLNWSVIVPALVIVLATVVWGIGFKDSFTNFASSALSAVVDNLGWAFILFGTVFVFFIVVIAASKFGTIRLGRIDEAPEFRTVSWISMMFAAGMGIGLMFYGTTEPLTFYRNGVPGHDEHNVGVAMSTTMFHWTLHPWAIYAIVGLAIAYSTFRVGRKQLLSSAFVPLIGEKGAEGWLGKLIDILAIIATVFGTACSLGLGALQIGAGLSAANIIEDPSDWTIVGIVSVLTLAFIFSAISGVGKGIQYLSNANMVLAALLAIFVFVVGPTVSILNLLPGSIGNYLSNFFQMAGRTAMSADGTAGEWLGSWTIFYWAWWISWSPFVGMFLARISRGRSIREFILGVLLVPAGVSTVWFSIFGGTAIVFEQNGESIWGDGAAEEQLFGLLHALPGGQIMGIIAMILLGTFFITSADSASTVMGTMSQHGQLEANKWVTAAWGVATAAIGLTLLLSGGDNALSNLQNVTIVAATPFLFVVIGLMFALVKDLSNDVIYLEYREQQRFNARLARERRVHNEHRKRELAAKRRRERKASGAGKRR
As to B1, in data set [3], the stoichiometry N (usually the number of molecules, sites or subunits per partner or assembly) was 3.

The values above are taken from doi:10.1101/2022.06.02.493408 (bioRxiv, 2022).
